Biological target: T1, acid α-glucosidase (GAA) (Homo sapiens, UniProt P10253)
T1 construct: purchased Genzyme, Inc. (Myozyme)
Test: GAA activity assay with para-nitrophenol-α-D-glucopyranoside substrate
Format: biochemical
Method: The activity of the encapsulated GAA, relative to the free GAA, was evaluated. It was envisioned that the enzyme would be less available to the substrate, when encapsulated, and therefore would have a lower activity. It follows then that the activity will be recovered when exposing the nanogel to lower pH, as the enzyme will be released in response to the β-thioester cleavage based decrosslinking. The enzymatic activity was measured using para-nitrophenol-α-D-glucopyranoside as substrate, the GAA-assisted cleavage of the α-1,4-linkage of which releases the chromophore p-nitrophenolate (pNP). […] Note, however, that the enzymatic activity of GAA itself at pH 7.4 is undetectable (FIG. 4a).
To activate the GAA from the nanogel, the pH of the solution was reduced to 5.0 using acetate buffer. […] To calibrate the percentage of activity that was recovered after 48 hours of incubation at pH 5.0, the enzymatic activity of the GAA from the nanogel was compared with that of the free enzyme at the same concentration. […]
GAA activity was measured using para-nitrophenol-α-D-glucopyranoside as a substrate in 100 mM Citrate/100 mM Sodium Phosphate buffer at pH 5.0. […] Presence of the product formation (para-nitrophenolate) was then measured by absorbance of 400 nm light on a Molecular Devices Spectra Max M5 at 25° C. […]

acid α-glucosidase [GAA]
enzymatic activity at pH 7.4: undetectable

From US10617652B2, “Polymers and polymeric nanogels with hydrophilics encapsulation and release capabilities and methods thereof” (University of Massachusetts, priority 2014, dated 2020)
